Sequences and labels used below:
B1: target 1 insC 3' of 19,insC 3' of 3 (mixed)
RNA 1: CACCCGUGCAAAAAUGCAGGGGUCUAAAACUGAGCGGAUAACCUCUCUAUGG
RNA 2: GGGAAUGGAUCCACAUCUACGAAUUCGUACCAUCAGAGAGGUUAUCCGCUCCACCGAGAUCGGAAGAGCACACGU
B2: target 1 complement block 8-12 (mixed)
RNA 1: B1 RNA 1
RNA 2: GGGAAUGGAUCCACAUCUACGAAUUCGUACCAUAGAGAGCAAUACCGCUCACCGAGAUCGGAAGAGCACACGU
B3: target 1 insU 3' of 6,insC 3' of 3 (mixed)
RNA 1: B1 RNA 1
RNA 2: GGGAAUGGAUCCACAUCUACGAAUUCGUACCAUAGAGAGGUUAUCCUGCUCCACCGAGAUCGGAAGAGCACACGU
B4: target 1 insU 3' of 18,insU 3' of 4 (mixed)
RNA 1: B1 RNA 1
RNA 2: B1 RNA 2 with C34A, A35U, C51U
B5: target 1 insU 3' of 15,insA 3' of 11 (mixed)
RNA 1: B1 RNA 1
RNA 2: GGGAAUGGAUCCACAUCUACGAAUUCGUACCAUAGAGUAGGUAUAUCCGCUCACCGAGAUCGGAAGAGCACACGU
B6: target 1 insU 3' of 20,insC 3' of 1 (mixed)
RNA 1: B1 RNA 1
RNA 2: B1 RNA 2 with C34U, C52A, A53C
B7: target 1 insC 3' of 14,insA 3' of 13 (mixed)
RNA 1: B1 RNA 1
RNA 2: B5 RNA 2 with U38A, A39C, G41A, U42G, A43U
B8: target 1 U3A,U8C (mixed)
RNA 1: B1 RNA 1
RNA 2: B2 RNA 2 with C40G, A41U, A42U, U43A, A44C, U49A
B9: target 1 insA 3' of 19,insA 3' of 15 (mixed)
RNA 1: B1 RNA 1
RNA 2: B5 RNA 2 with G35A, A36G, G37A, U38G, G40A, U42G, A43U
B10: target 1 insU 3' of 20,insU 3' of 1 (mixed)
RNA 1: B1 RNA 1
RNA 2: B1 RNA 2 with C34U, C52A, A53U
B11: target 1 del7,del14 (mixed)
RNA 1: B1 RNA 1
RNA 2: GGGAAUGGAUCCACAUCUACGAAUUCGUACCAUAGAGGGUUAUCGCUCACCGAGAUCGGAAGAGCACACGU
B12: target 1 C4G,A9C (mixed)
RNA 1: B1 RNA 1
RNA 2: B2 RNA 2 with C40G, A41U, A42U, U43C, A44U, C48G
B13: target 1 C6G,C22U (mixed)
RNA 1: B1 RNA 1
RNA 2: B2 RNA 2 with C30U, C40G, A41U, A42U, U43A, A44U, C46G
B14: target 1 insA 3' of 19,insU 3' of 9 (mixed)
RNA 1: B1 RNA 1
RNA 2: B1 RNA 2 with C34A, C46U, G48C, C49G, U50C, C51U
B15: target 1 insU 3' of 12,insA 3' of 10 (mixed)
RNA 1: B1 RNA 1
RNA 2: B5 RNA 2 with U38A, A39G, G41U, A43U, U44A
B16: target 1 G5A,U10A (mixed)
RNA 1: B1 RNA 1
RNA 2: B2 RNA 2 with C40G, A41U, U43A, A44U, G47A
B17: target 1 insG 3' of 9,insG 3' of 3 (mixed)
RNA 1: B1 RNA 1
RNA 2: B3 RNA 2 with U44G, C45U, U47C, C51G
B18: target 1 A9C,C22A (mixed)
RNA 1: B1 RNA 1
RNA 2: B2 RNA 2 with C30A, C40G, A41U, A42U, U43C, A44U
B19: target 1 insC 3' of 18,insC 3' of 8 (mixed)
RNA 1: B1 RNA 1
RNA 2: B1 RNA 2 with C34A, A35C, G48C, C49G, U50C, C51U
B20: target 1 A1G,U11C (mixed)
RNA 1: B1 RNA 1
RNA 2: B2 RNA 2 with C40G, A41C, A42U, U43A, A44U, A51G
B21: target 1 insG 3' of 11,insA 3' of 4 (mixed)
RNA 1: B1 RNA 1
RNA 2: B3 RNA 2 with U42G, A43U, U44A, C45U, U47C, U50A, C51U
B22: target 1 U10C,U11A (mixed)
RNA 1: B1 RNA 1
RNA 2: B2 RNA 2 with C40G, A42C, U43A, A44U
B23: target 1 insU 3' of 21,insC 3' of 9 (mixed)
RNA 1: B1 RNA 1
RNA 2: B1 RNA 2 with A32U, U33A, C34U, U45C, C46U, G48C, C49G, U50C, C51U
B24: target 1 insU 3' of 22,insG 3' of 22 (mixed)
RNA 1: B1 RNA 1
RNA 2: B5 RNA 2 with C31U, A32G, U33C, G35U, U38A, A39G, G40A, U42G, A43U
B25: target 1 U8C,G17A (mixed)
RNA 1: B1 RNA 1
RNA 2: B2 RNA 2 with G35A, C40G, A41U, A42U, U43A, A44C
B26: target 1 insU 3' of 20,insG 3' of 1 (mixed)
RNA 1: B1 RNA 1
RNA 2: B1 RNA 2 with C34U, C52A, A53G
B27: target 1 insG 3' of 9,insU 3' of 6 (mixed)
RNA 1: B1 RNA 1
RNA 2: B3 RNA 2 with U44G, C45U, U47C, G48U, C49G, U50C, C51U
B28: target 1 insC 3' of 22,insG 3' of 7 (mixed)
RNA 1: B1 RNA 1
RNA 2: B1 RNA 2 with A32C, U33A, C34U, C47G, G48C, C49G, U50C, C51U
B29: target 1 insC 3' of 20,insU 3' of 18 (mixed)
RNA 1: B1 RNA 1
RNA 2: B5 RNA 2 with U33C, A34U, G35A, A36U, U38A, A39G, G40A, U42G, A43U
B30: target 1 insU 3' of 5,insU 3' of 1 (mixed)
RNA 1: B1 RNA 1
RNA 2: B3 RNA 2 with U47G, G48U, C52A, A53U
B31: target 1 complement block 7-12 (mixed)
RNA 1: B1 RNA 1
RNA 2: B2 RNA 2 with C45G
B32: target 1 C2U,U11C (mixed)
RNA 1: B1 RNA 1
RNA 2: B2 RNA 2 with C40G, A41C, A42U, U43A, A44U, C50U

Changes are numbered by the printed parent chain. Numbers in names are those of the source.

Usually Kd stands for the constant that tells how readily two partners part at equilibrium. High values mean weaker binding, low ones tighter binding.

The series concerns the target T1, EsCas13d, nuclease-dead (Eubacterium siraeum, UniProt B0MS50, R295A;H300A;R849A;H854A).
T1 sequence: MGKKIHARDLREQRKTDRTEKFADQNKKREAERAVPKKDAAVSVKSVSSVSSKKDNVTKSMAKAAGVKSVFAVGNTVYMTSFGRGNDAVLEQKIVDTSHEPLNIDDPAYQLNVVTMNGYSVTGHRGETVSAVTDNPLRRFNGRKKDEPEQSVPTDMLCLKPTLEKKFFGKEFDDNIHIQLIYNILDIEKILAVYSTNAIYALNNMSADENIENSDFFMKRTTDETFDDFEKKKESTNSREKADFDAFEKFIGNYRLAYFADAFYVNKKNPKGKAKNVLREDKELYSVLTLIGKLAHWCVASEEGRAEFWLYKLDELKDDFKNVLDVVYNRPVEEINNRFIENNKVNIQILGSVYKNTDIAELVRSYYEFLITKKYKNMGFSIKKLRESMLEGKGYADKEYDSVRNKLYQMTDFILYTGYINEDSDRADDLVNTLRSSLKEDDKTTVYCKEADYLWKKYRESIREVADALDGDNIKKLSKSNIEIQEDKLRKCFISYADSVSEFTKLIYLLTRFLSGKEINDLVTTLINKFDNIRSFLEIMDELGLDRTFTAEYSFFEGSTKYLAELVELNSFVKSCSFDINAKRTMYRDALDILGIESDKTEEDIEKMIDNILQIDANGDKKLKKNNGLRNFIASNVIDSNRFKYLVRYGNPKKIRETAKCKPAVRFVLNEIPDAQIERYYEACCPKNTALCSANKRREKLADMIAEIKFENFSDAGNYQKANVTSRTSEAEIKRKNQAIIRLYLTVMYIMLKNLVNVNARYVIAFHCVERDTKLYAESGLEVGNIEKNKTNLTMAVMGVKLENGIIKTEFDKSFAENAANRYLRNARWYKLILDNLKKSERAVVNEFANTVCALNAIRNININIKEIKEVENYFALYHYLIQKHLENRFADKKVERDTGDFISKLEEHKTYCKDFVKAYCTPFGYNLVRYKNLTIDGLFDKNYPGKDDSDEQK
In words: crRNA (strand 1, pre-loaded); Mg2+; 40 mM Tris-HCl pH 7.5, 150 mM NaCl, 6 mM MgCl2, 1 mM DTT, 0.1% Tween-20, 0.2 mg/ml BSA; 25 C; 10 min per concentration, then washed. The following applies: tags: His6-TwinStrep-SUMO cleaved; N-terminal SNAP kept (SNAP-Surface 488); label: 3' end held by stalled T7 RNA polymerase.
Take B1: the equilibrium dissociation constant (Kd) was 30 ± 4 nM.
With B2, the Kd is 12.7 ± 0.8 nM. This Kd is about 2.4-fold lower than that of the molecule before.
The result for B3 reads 10.5 ± 0.7 nM; that for B4, 20.2 ± 1.3 nM; that for B5, 27.8 ± 1.7 nM.
The result for B6 reads 10.1 ± 1 nM.
B7 yielded a Kd of 28 ± 7 nM.
With B8, binding was characterised by a dissociation constant (Kd) of 7.6 ± 0.7 nM.
The result for B9 reads 16.4 ± 1.8 nM.
The result for B10 reads 14.1 ± 1.4 nM.
As to B11, the Kd stood at 18 ± 0.6 nM.
The result for B12 reads 7.2 ± 0.7 nM.
In turn, B13 returned a Kd of 14 ± 1.1 nM.
The result for B14 reads 32.5 ± 3.1 nM; that for B15, 10.3 ± 0.4 nM; that for B16, 84 ± 16 nM.
The result for B17 reads 10.3 ± 0.5 nM; that for B18, 47 ± 9 nM; that for B19, 44.9 ± 3 nM.
The result for B20 reads 8.4 ± 0.5 nM; that for B21, roughly 63 nM.
B22 showed a dissociation constant (Kd) of 35.7 ± 2.9 nM.
The result for B23 reads 40.1 ± 2.9 nM; that for B24, 30.3 ± 2.5 nM; that for B25, 61 ± 10 nM.
Molecule B26 registered a Kd of 11.8 ± 1.2 nM.
The result for B27 reads 20.3 ± 1.2 nM; that for B28, 16.2 ± 3 nM; that for B29, 6.12 ± 0.3 nM.
The result for B30 reads 13.5 ± 0.6 nM; that for B31, 16.6 ± 0.7 nM; that for B32, 9.5 ± 0.4 nM.

For the origin of these results see PMC10786891, “Massively parallel profiling of RNA-targeting CRISPR-Cas13d”.
